Earlier results on 2 substances are cited in paper PMC10423694.

As usually defined, the Kd is the equilibrium constant for the complex coming apart.

The target of one data set is ubiquitin (Homo sapiens) (UniProt P0CG47).
A further data set has as its target M1-diUb (Homo sapiens) (UniProt P0CG47). Nature of the data set: SPR. (SPR reads the build-up and loss of mass on a sensor chip optically.)
For the next data set, the target named is K63-diUb (Homo sapiens) (UniProt P0CG47). The experiment in a line: SPR.
In a further data set the target is K48-diUb (Homo sapiens) (UniProt P0CG47). The experiment in a line: SPR.
Data set [1] has as its target ubiquitin monomer (Homo sapiens) (UniProt P0CG47). Nature of the data set: SPR.

NEMO, sequence (Q9Y6K9 whole entry): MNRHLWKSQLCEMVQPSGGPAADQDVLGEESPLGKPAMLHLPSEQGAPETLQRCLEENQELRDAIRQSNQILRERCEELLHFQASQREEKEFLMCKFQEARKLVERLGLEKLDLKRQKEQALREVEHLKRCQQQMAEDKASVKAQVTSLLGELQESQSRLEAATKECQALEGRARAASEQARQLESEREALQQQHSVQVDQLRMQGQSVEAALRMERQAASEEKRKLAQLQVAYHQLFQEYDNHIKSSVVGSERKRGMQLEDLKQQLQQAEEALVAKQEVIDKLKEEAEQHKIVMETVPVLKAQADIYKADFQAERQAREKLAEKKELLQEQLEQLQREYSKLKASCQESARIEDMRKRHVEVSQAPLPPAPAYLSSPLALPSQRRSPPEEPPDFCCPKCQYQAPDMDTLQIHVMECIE
UBQLN2 UBA, sequence (Q9UHD9 578-624): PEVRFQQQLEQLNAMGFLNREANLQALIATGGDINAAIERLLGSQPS

UBQLN2 UBA (from UniProt Q9UHD9): the dissociation constant (Kd) in the data set with ubiquitin (Homo sapiens) was 8 µM.
NEMO (from UniProt Q9Y6K9): the dissociation constant Kd in the data set with M1-diUb (Homo sapiens) is 4.5 µM; in the data set with K63-diUb (Homo sapiens), 140 µM; with K48-diUb (Homo sapiens), 169 µM; in data set [1], 152 µM.
